Measured values as given in patent publication US20190016816A1 (APTEVO RESEARCH AND DEVELOPMENT, published 2019).

T1: human 5T4 on cells (human, UniProt Q13641 32-420)
T1 construct: also called TPBG; hu5T4
T1 sequence: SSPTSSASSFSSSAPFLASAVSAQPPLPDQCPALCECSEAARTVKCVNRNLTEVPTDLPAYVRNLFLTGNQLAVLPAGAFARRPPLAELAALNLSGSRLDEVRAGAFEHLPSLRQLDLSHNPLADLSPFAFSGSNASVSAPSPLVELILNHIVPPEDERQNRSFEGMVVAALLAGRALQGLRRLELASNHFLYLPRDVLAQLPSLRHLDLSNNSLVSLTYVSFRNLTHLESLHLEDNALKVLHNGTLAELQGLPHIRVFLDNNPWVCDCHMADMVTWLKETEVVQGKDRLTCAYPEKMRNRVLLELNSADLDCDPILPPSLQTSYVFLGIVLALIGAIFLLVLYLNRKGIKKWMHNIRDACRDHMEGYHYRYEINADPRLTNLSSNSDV


Assays:
human CD137 on cells [1] = target: T2, human CD137 on cells (human, UniProt Q07011 24-255); experiment: flow cytometry, CHO-K1 cells expressing human CD137, PE anti-human IgG Fc secondary, MFI (median)
T2 construct: also called 4-1BB; TNFRSF9 (CHO-K1/human CD137 cells)
Experimental: Binding studies on CHO-K1 cells lines expressing CD137 were performed by standard flow cytometry-based staining procedures. CHO-K1 cells (generated by Alligator) were transfected with human or cynomolgus macaque CD137. A typical experiment would label approximately 100,000 cells per well, in 96-well plates, with a range of 100 nM to 0.05 nM binding molecule in 50 μL of saline buffer with 2% BSA and 2 mM EDTA, for 30 min on ice, followed by washes and incubation with PE-labeled secondary antibody, goat anti-human IgG Fcγ ([…]), for 20 minutes on ice. Signal from bound molecules was detected using a LSR-II™ or a Symphony A3 flow cytometer (BD Biosciences) and analyzed by FlowJo flow cytometry analysis software. Median fluorescence intensity (MFI-median) of bound molecules on live cells was determined after exclusion of doublets cells. Nonlinear regression analysis to determine EC₅₀ values was performed in GraphPad Prism 6® graphing and statistics software.

human CD137 on cells [2] = target: T2, human CD137 on cells; experiment: flow cytometry, MFI of all CD3+CD8+ cells gated from CD3-stimulated human PBMC
Experimental: (§1) Following 48 h of incubation with or without CD3, human and cynomolgus PBMC were harvested, pooled, recounted and diluted in FACS buffer (PBS+0.5% BSA, 0.05% NaN₃) to a concentration of 5×10⁶ cells/mL. 50 μL (0.25×10⁶ cells) of cell solution was added to a 96-well FACS staining plate (Falcon #351190). Following 10 min of Fc-blocking in RT using Beriglobin (hIgG, 200 μg/mL), cells were washed in FACS buffer and then incubated for 1 h in 4° C. with 100 μL of the biotinylated ALG.APV-210 or negative control. The antibodies were added in a serial dilution starting either at 5 μg/mL titrating down in a 12 step ⅓ dilution down to […] (exp 1) or 1 μg/mL titrating down in a 12 step ½ dilution down to 0.0005 μg/mL (exp 2). […] Cells were analysed for ALG.APV-210 binding using flow cytometry by gating on viable, single cells expressing CD3 and CD8. MFI values (FMO subtracted) from 2 independent experiments as well as normalized pooled data from 2 experiments and EC₅₀-values were determined and plotted using GraphPad Prism 7, non-linear regression log (agonist) vs. normalized response—variable slope, n=6 donors/group.

human 5T4 on cells = target: T1, human 5T4 on cells; experiment: flow cytometry, HT29 cells (endogenous human 5T4), biotinylated ALG.APV-210 + streptavidin-PE, 1 of 2 experiments
Experimental: Prior to the FACS staining, all cell lines were characterized for their 5T4 expression levels using a receptor density kit (Quantum Simply Cellular, anti-human IgG, Bangs Laboratories, Inc). Adherent cell lines were cultured according to their supplier's instructions and were harvested from their cell culture flasks using Trypsin/EDTA, counted in R10 medium in a Burker chamber, and diluted in FACS buffer (PBS+0.5% BSA, 0.05% NaN₃) to a concentration of 4×10⁶ cells/mL. 50 μL (0.20×10⁶) of cell solution was added to a 96-well FACS staining plate (Falcon #351190). Cells were incubated for 20 min in 4° C. with 50 μL of the biotinylated ALG.APV-210 (2× final concentration). The antibodies were added in a serial dilution starting at 20 μg/mL titrating down in a 12 step ½ dilution down to 0.010 μg/mL. […] Cells were analysed for ALG.APV-210 binding using flow cytometry (FACSVerse) by gating on single cells. MFI values (secondary antibody only subtracted) from 1 out of 2 independent experiments, as well as normalized data and EC₅₀-values of pooled data from 2 experiments were determined and plotted using GraphPad Prism 7, non-linear regression log (agonist) vs. normalized response—variable slope.
The binding (EC₅₀) of the biotinylated ALG.APV-210 to 5T4 when expressed on cells, either at endogenous levels on human tumor cells or on cells transfected to express 5T4 was assessed. […]

[3] = target: T3, cynomolgus CD137 on cells (cynomolgus macaque, UniProt A9YYE7 24-254); experiment: flow cytometry, MFI of all CD3+CD8+ cells gated from CD3-stimulated cynomolgus PBMC
T3 construct: whole, on cells; also called CHO-K1/cynomolgus CD137 cell line; cynomolgus monkey CD137 on CD3-stimulated primary CD8 T cells
Experimental: as §1

T2 sequence (Q07011 24-255 limits assumed): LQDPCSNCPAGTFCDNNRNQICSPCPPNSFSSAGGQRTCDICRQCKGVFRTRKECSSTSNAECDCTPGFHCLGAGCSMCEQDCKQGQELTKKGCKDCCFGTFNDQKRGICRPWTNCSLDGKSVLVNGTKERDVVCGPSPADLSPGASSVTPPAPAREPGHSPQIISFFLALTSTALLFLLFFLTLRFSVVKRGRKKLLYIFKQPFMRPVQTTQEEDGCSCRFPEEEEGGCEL
T3 sequence (A9YYE7 entry or part of it): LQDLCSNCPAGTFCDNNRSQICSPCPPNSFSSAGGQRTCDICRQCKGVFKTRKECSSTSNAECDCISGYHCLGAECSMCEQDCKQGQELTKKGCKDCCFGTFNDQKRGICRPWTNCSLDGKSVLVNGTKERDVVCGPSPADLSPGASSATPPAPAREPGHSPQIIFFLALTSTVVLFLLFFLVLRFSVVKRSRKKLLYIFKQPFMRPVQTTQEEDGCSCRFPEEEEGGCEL

Row | Binder | EC50 (human CD137 on cells [1]) [pM] | EC50 (human CD137 on cells [2]) [pM] | EC50 (read off the curve) (human 5T4 on cells) [pM] | EC50 [3] [pM]
1 | ALG.APV-187 (bispecific antibody, Optimized ADAPTIR scFv-Fc-scFv homodimer with stabilizing disulfide in the 1210 scFv) EVQLLESGGGLVQPGGSLRLSCAASGFTFSHGSMYWVRQAPGKGLEWVSSISSGSGSTYYADSVKGRFTISHDNSKNTLYLQMNSLRAEDTAVYYCARSSYYGSYYSIDYWGQGTLVTVSSGGGGSGGGGSGGGGSGGGGSDIQMTQSPSSLSASVGDRVTITCRASQSISSYLNWYQQKPGKAPKLLIYAASSLQSGVPSRFSGSGSGTDFTLTISSLQPEDFATYYCQQYYDNLPTFGQGTKLEIKSSEPKSSDKTHTCPPCPAPEAAGAPSVFLFPPKPKDTLMISRTPEVTCVVVDVSHEDPEVKFNWYVDGVEVHNAKTKPREEQYNSTYRVVSVLTVLHQDWLNGKEYKCAVSNKALPAPIEKTISKAKGQPREPQVYTLPPSRDELTKNQVSLTCLVKGFYPSDIAVEWESNGQPENNYKTTPPVLDSDGSFFLYSKLTVDKSRWQQGNVFSCSVMHEALHNHYTQKSLSLSPGSGGGGSGGGGSGGGGSPSEVQLLESGGGLVQPGGSLRLSCAASGFTFSSYAMSWVRQAPGKCLEWVSAISGSGGSTYYADSVKGRFTISRDNSKNTLYLQMNSLRAEDTAVYYCARYYGGYYSAWMDYWGQGTLVTVSSGGGGSGGGGSGGGGSGGGGSDIQMTQSPSSLSASVGDRVTITCRASQSISSFLNWYQQKPGKAPKLLIYAASSLQSGVPSRFSGSGSGTDFTLTISSLQPEDSATYYCQQTYGYLHTFGCGTKLEIKR | 900 | – | – | –
2 | biotinylated ALG.APV-210 (bispecific antibody, also called ALG.APV-210 (biotinylated for FACS detection)) EVQLLESGGGLVQPGGSLRLSCAASGFTFSHGSMYWVRQAPGKGLEWVSSISSGSGSTYYADSVKGRFTISHDNSKNTLYLQMNSLRAEDTAVYYCARSSYYGSYYSIDYWGQGTLVTVSSGGGGSGGGGSGGGGSGGGGSDIQMTQSPSSLSASVGDRVTITCRASQSISSYLNWYQQKPGKAPKLLIYAASSLQSGVPSRFSGSGSGTDFTLTISSLQPEDFATYYCQQYYDNLPTFGQGTKLEIKEPKSSDKTHTCPPCPAPEAAGAPSVFLFPPKPKDTLMISRTPEVTCVVVDVSHEDPEVKFNWYVDGVEVHNAKTKPREEQYNSTYRVVSVLTVLHQDWLNGKEYKCAVSNKALPAPIEKTISKAKGQPREPQVYTLPPSRDELTKNQVSLTCLVKGFYPSDIAVEWESNGQPENNYKTTPPVLDSDGSFFLYSKLTVDKSRWQQGNVFSCSVMHEALHNHYTQKSLSLSPGSGGGGSGGGGSGGGGSPSEVQLLESGGGLVQPGGSLRLSCAASGFTFSSYAMSWVRQAPGKCLEWVSAISGSGGSTYYADSVKGRFTISRDNSKNTLYLQMNSLRAEDTAVYYCARYYGGYYSAWMDYWGQGTLVTVSSGGGGSGGGGSGGGGSGGGGSDIQMTQSPSSLSASVGDRVTITCRASQSISSFLNWYQQKPGKAPKLLIYAASSLQSGVPSRFSGSGSGTDFTLTISSLQPEDSATYYCQQTYGYLHTFGCGTKLEIKR | – | 235 | ~10000 | 236
